The series can be described thus: yeast display, Sf9 membrane polyspecificity reagent, FACS + sequencing; frameworks hold sequencing errors. In a few lines: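 Using colony PCR, genes from sorted yeast display clones were amplified, then sequenced on MiSeq at 2 × 250 and filtered by CDR length. The clones had been stained with 10% biotinylated, detergent-solubilized Sf9 membrane reagent for 1 hour at 4 °C and sorted by FACS into low and high (top ~1%) gates on anti-HA and streptavidin fluorescence. Polyreactivity labels come from the gate of origin.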
Regarding “QVQLVESGGGLVQAGGSLRLSCAASGRTFNYNSMGWYRQAPGKERELVAAISATGGTTYYADSVKGRFTISRDNAKNTVYLQMNSLKPEDTAVYYCAADTPPYYAYWDVSFEYYYWGQGTQVTVSS”, the “polyreactivity (PSR sort gate)” value was “low polyreactivity”.
With “QVQLVESGGGLVQAGGSLRLSCAASGRTFNYYAMGWYRPAPGKERELVAAISGSGGRTYYADSVKGRFTISRDNAKNNVYLQMNSLKPVDTAVYYCNADVGKYPYAHTYWARRYYYWGQGTQVTVSS”, the “polyreactivity (PSR sort gate)” value is “high polyreactivity”.
Then “QVQLVESGGGLVQAGGSLRLSCAASGRTFPAYAMGWYRQAPGKERELVAAISRGGSTYYADSVKGRFTISRDNAKNTVYLQMNSLKPEDTAVYYCAARYSYYRQGDSWYNYNYWGQGTQVTVSS”, with “high polyreactivity”.
Consider “QVQLVESGGGLVQAGGSLRLSCAASGRTFPAYAMGWYRQAPGKERELVAAISSGTSTYADSVKGRFTISRDNAKNTVYLQMNSLKPEDTAVYYCAAGYDRVHSVAGYDYWGQGTQVTVSS”, for which the “polyreactivity (PSR sort gate)” value is on record as “low polyreactivity”.
Then “QVQLVESGGGLVQAGGSLRLSCAASGRTFPAYAMGWYRQAPGKERELVAAISYSGGRTRYADSVKGRFTISRDNAKNTVYLQMNSLKPEDTAVYYCNRVIPTQSLRDYYWGQGTQVTVSS”, with “high polyreactivity”.
Then “QVQLVESGGGLVQAGGSLRLSCAASGRTFPAYAMGWYRQAPGKERELVAGISKRGGSTYYADSVKGRFTISRDNAKNTVYFQMNSLKPEDTAVYYCNAEGHLFRYDSWGQGTQVTVSS”, with “high polyreactivity”.
Under “QVQLVESGGGLVQAGGSLRLSCAASGRTFPFNTMGWYRQAPGKERELVARISSGGSTYYADSVKGRFRISRDNAKNTVYLQMNSLKPEDTAVYYCATRYRYYSRLYDYWGQGTQVTVSS” stands “high polyreactivity”.
As for “QVQLVESGGGLVQAGGSLRLSCAASGRTFPGNAMGWYRQAPGKERELVAAIRWRGGSTYYADSVKGRFTISRDNAKNTVYLQMNSLKPEDTAVYYCATRALGHFDWGQGTQVTVSS”, the “polyreactivity (PSR sort gate)” value is recorded as “low polyreactivity”.
Under “QVQLVESGGGLVQAGGSLRLSCAASGRTFPGYAMGWYRQAPGKERELVAGISYRGGSTYYADSVKGRITISRDIAKNSVYLQMISLKPEDTAVYFCARDYSRHKGDLWGQGTQVTVSS” stands “low polyreactivity”; under “QVQLVESGGGLVQAGGSLRLSCAASGRTFPIYAMGWYRQAPGKERELVAAITSYRRGTTYYADSVKGRFTISRDNAKNTVYLQMNSLKPEDTAVYYCTARTLRGGEYKYWGQGTPVTVSS”, “high polyreactivity”.
Under “QVQLVESGGGLVQAGGSLRLSCAASGRTFPLYAMGWYRQAPGKERELVASITTDSSTYYADSVKGLFTISRDNAKYTVYLQMNSLKPEDTAVYYCAATTIPYPYTEFDYWGQGTQVTVSS” stands “low polyreactivity”; under “QVQLVESGGGLVQAGGSLRLSCAASGRTFPPYAMGWYRQAPGKERELVAAISRRAGTTYYADSVKGRFTISRDNAKNTVYLQMNSLKPEDTAVYYCAASDHYRWYVHRWEDPFYYWGQGTQVTVSS”, “low polyreactivity”; under “QVQLVESGGGLVQAGGSLRLSCAASGRTFPRNAMGWYRQAPGKERELVAAITTSGGRTYYADSVKGRFTISRDNAKNTVYLQMNSLKPEDTAVYYCAVRYDTLAWYAFYYWGQGTQVTVSS”, “low polyreactivity”.
Under “QVQLVESGGGLVQAGGSLRLSCAASGRTFPSYAKGLYRQAPGKERELVASISRGASTNYADSVMGRFTISRDNAKNCVFLQMNSLKPEDTAVYFWAANDSWVYTYYYWGQGTQVTVSS” stands “high polyreactivity”; under “QVQLVESGGGLVQAGGSLRLSCAASGRTFPSYAMGWYRQAPGKERELVAAISRSGGSTYYADSVKGRFTISRDNAKNTVYLQMNSLKPEDTAVYYCAAVSRVHFSYIYDYWGQGTQVTVSS”, “high polyreactivity”.
For “QVQLVESGGGLVQAGGSLRLSCAASGRTFPTNAMGWYIQAPGKERELVAVISRNSGRTYYADSVKGRFTISRDNAMNTVYFQMNSLKPEDTAVYYCAADKYTRAYYYWGQGTQVTVSS”, the “polyreactivity (PSR sort gate)” value was “high polyreactivity”.
On to “QVQLVESGGGLVQAGGSLRLSCAASGRTFPTNAMGWYRQAPGKERELVARISTRGGSTYYADSVKGRFTISRDNAKNTVYLQMNSLKPEDTAVYYCARRYAVSNQASYYWGQGTQVTVSS”, for which the “polyreactivity (PSR sort gate)” value is listed as “high polyreactivity”.
Then “QVQLVESGGGLVQAGGSLRLSCAASGRTFPTYAMGWYRQAPGKERELVARITWNGGSTYYADSVKGRFTISRDNAKNTVYLQMNSLKPEDTAVYYCNAAQRIRYYPRYYYGYDYWGQGTQVTVSS”, with “high polyreactivity”; and “QVQLVESGGGLVQAGGSLRLSCAASGRTFPVNAMGWYRQAPGKERELVASITYSGGSTYYADSVKGRFTISRDNAKNTVYLQMNSLKPEDTAVYYCAADWYRSPYDYWGQGTQVTVSS”, with “low polyreactivity”.
Under “QVQLVESGGGLVQAGGSLRLSCAASGRTFPVNVMGWYRQAPGKERELVAAITWSGDSTYYADSVKGRFTISRDNAKNTVYLQMNSVKPEDTAVYYCATDYSGLRYDYWGQGTQVTVSS” stands “low polyreactivity”; under “QVQLVESGGGLVQAGGSLRLSCAASGRTFPYNAMGWYIQAPGKERELVAAISSGGSTNYADSVKGRFTISRDNAKNTVYLQMNSLKPEDTAVYYCAVTGWPRYTWYSYGYWGQGTQVTVSS”, “low polyreactivity”; under “QVQLVESGGGLVQAGGSLRLSCAASGRTFPYNAMGWYRPAPGKERELVAAISGRGGSTYYADYVKGRFTISRDNAKNTVYLQMNSLKPEDTAVYYCAARLPWSYYRTQGYNYWGQGTQVTVSS”, “high polyreactivity”.
In the case of “QVQLVESGGGLVQAGGSLRLSCAASGRTFPYNAMGWYRQAPGKERELVAAISYSGGRTYYADSVKGRFTISRDNAKNTFYLQMNSLKPEDTAVYYCNALGSGREDDYWGQGTQVTVSS”, the “polyreactivity (PSR sort gate)” value is “high polyreactivity”.
In the case of “QVQLVESGGGLVQAGGSLRLSCAASGRTFPYNAMGWYRQAPGKERELVAAISYSGGRTYYADSVKGRFTISRDNAKNTVYLQMNSLKPEDTAVYYCNALGSGREDDYWGQGTQVTVSS”, the “polyreactivity (PSR sort gate)” value is reported as “high polyreactivity”.
Then “QVQLVESGGGLVQAGGSLRLSCAASGRTFPYNAMVWYRQAPGKERELVARITSGVRTYYADSVKGRFTISRDNAKNTVYLQMNSLKPEDTAVYYCAATTYNRFYRAPTSKYDYWGQGTQVTVSS”, with “high polyreactivity”; and “QVQLVESGGGLVQAGGSLRLSCAASGRTFPYNARGWYRQAPGKERELVAAISSRGGSTYYADSVKGRFTISRDNAKNTVYLQMNSLKPEDTAVYYCAAQFRFSGMGYWGQGTQVTVSS”, with “high polyreactivity”.
Under “QVQLVESGGGLVQAGGSLRLSCAASGRTFPYYAMGGYRKAPGKERELLASISRGGNTNYADSVKGRFTISRDNAKNTVYLQMNSLKPEATAVYYCAADYYLAYGSRRGGYWGQGTQVTVSS” stands “high polyreactivity”; under “QVQLVESGGGLVQAGGSLRLSCAASGRTFPYYAMGWYRQAPGKERELVAAISSSGGRTYYADSVKGRFTISRDNAKNTVYLQMNSLKREDTAVYYCNVDAWYPYQGFLVGYYYWGQGTQVTVSS”, “low polyreactivity”; under “QVQLVESGGGLVQAGGSLRLSCAASGRTFPYYAMGWYRQAPGKERELVAAISSSGGRTYYADSVKGRFTISRDNAKNTVYLQMNSQKPEDTAVYYCAAQTPGVYLRQIGGYYYWGQGTQVTVSS”, “low polyreactivity”.
Then “QVQLVESGGGLVQAGGSLRLSCAASGRTFPYYAMGWYRQAPGKERELVAAITWSGGTTYYADSVKGRFTISRDNAKNTVYLQMNSLKPEDTAVYYCAADFYGPDGYDYWGQGTQVTVSS”, with “low polyreactivity”; and “QVQLVESGGGLVQAGGSLRLSCAASGRTFPYYTMGWYIQAPGKERELVAAIDGSGDNTYYADSVKGRFTISRDYAKNTVYLQLNSLKPEDNAVYYCTAEQWWSLDYWGQGTQVTVSS”, with “low polyreactivity”.
As for “QVQLVESGGGLVQAGGSLRLSCAASGRTFPYYTMGWYRQAPGKERELVAAISRSGGSTYYADSVKGRFTISRDNAKNTVYLQMNSLKPEDTAVYYCAAGIYRYNRYWGYNYWGQGTQVTVSS”, the “polyreactivity (PSR sort gate)” value is “high polyreactivity”.
As to “QVQLVESGGGLVQAGGSLRLSCAASGRTFQFYAMGWYRQAPGKEREWVAAISRSSGSTTYADSVKGRFTISRDNAKNTVYLQMNSLKPEDTAVFYCDADARYRSYSLLVRPARYYYWGQGTQVTVAS”, the “polyreactivity (PSR sort gate)” value was “high polyreactivity”.
Under “QVQLVESGGGLVQAGGSLRLSCAASGRTFQGYAMGWYRQAPGKERELVAAISRSGGRTYYADSVKGRFTISRDNAKNTVYLQMNSLKPEDTAVYYCAARRRWSQTPFDYWGQGTQVTVSS” stands “high polyreactivity”; under “QVQLVESGGGLVQAGGSLRLSCAASGRTFQKNTMGWYRQAPGKERELVAAIDYSATTTYYADSVKGRFTISRDNAKNTVYLQMNSLKTEDTAVYYCAARWSYPRWEFDYWGQGTQVTVSS”, “high polyreactivity”.
Under “QVQLVESGGGLVQAGGSLRLSCAASGRTFQLYAMGWYRQAPGKQRELVAAIRTGGSTNYADSVKGRFTISRDNAKNTVYLQMNSLKPEDTAVYYCAAVQRTDRSAHYSWGQGTQVTVSS” stands “low polyreactivity”.
On to “QVQLVESGGGLVQAGGSLRLSCAASGRTFQPYAMGWYRQAPGKERELVAAITSIGGSTFYADSVKGRFTISRDNAKNTVYLQMNSLKPEDTAVYYCNARRYWLRYDYWGQGTQVTVSS”, for which the “polyreactivity (PSR sort gate)” value was “low polyreactivity”.
Then “QVQLVESGGGLVQAGGSLRLSCAASGRTFQPYAMGWYRQAPRKERELVASISRSGGRTYYADSVKGRFTISRDNAKNTVYLQMNSLKPEDTAVYYCADDIPYTRSIKYYYWGQGTQVTVSS”, with “high polyreactivity”; and “QVQLVESGGGLVQAGGSLRLSCAASGRTFQRNAMGWYIQAPGKERELVATITTNGGSTYYADSVKGRFTISRDNAKNTVYLQMNSLKPEDTAVYYCAAPFNPRVRTLRSVRMDYWGQGTQVTVSS”, with “low polyreactivity”; and “QVQLVESGGGLVQAGGSLRLSCAASGRTFQRYAMGWYRQAPGKERELVAAITSSGGTTYYADSVKGRFTISRDNAKNTVYLQMYSMKPEDTAVYYCAARRITSRYDYWGQGTQVTVSS”, with “high polyreactivity”.
Then “QVQLVESGGGLVQAGGSLRLSCAASGRTFQSNGMGWYRQAPGKERELVAAITWSSGTTYYADSVKGRFTISRDNAKNTVYLQMNSLKPEDTAVYYCAADWGHWNSLYYSGFGYWGQGTQVTVSS”, with “low polyreactivity”.

The record behind these values is the nanobody polyreactivity screen of Harvey et al. (2022).
